Positions count from the first letter of the chain named. Read-outs that look alike come from different tables or passages of the source. Square brackets hold non-standard residues; d marks the D form. Ends that are not written are not given here. Met(O) = CS(=O)CC[C@H](N)C(=O)O
Columns and labels:
ROMK1 channel = target: T1, ROMK1 channel (Rattus norvegicus, UniProt P35560); assay: Two-electrode voltage clamp of wild-type ROMK1 channel in Xenopus oocytes; format: cell-based
T1 construct: expressed in transfected cells; host or cells: Xenopus laevis oocytes (cRNA injection)
T1 sequence (P35560 1-391): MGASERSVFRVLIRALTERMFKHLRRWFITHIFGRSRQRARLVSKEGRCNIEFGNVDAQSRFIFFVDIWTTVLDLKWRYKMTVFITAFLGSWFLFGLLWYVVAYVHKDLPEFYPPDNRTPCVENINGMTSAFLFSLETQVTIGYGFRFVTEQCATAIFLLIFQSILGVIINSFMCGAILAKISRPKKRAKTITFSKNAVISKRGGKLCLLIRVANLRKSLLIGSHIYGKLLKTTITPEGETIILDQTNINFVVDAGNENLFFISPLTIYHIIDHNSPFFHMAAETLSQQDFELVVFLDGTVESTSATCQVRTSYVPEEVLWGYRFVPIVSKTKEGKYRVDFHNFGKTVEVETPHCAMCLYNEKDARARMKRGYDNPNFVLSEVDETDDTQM
Method: Oocytes harvested from Xenopus laevis frogs were digested with collagenase (2 mg/mL) in a solution containing: NaCl, 82.5 mM; KCl, 2.5 mM; MgCl2, 1.0 mM; HEPES, 5.0 mM (pH 7.6) and were agitated on a platform shaker at a rate of 80 rpm for 90 minutes. The oocytes were then rinsed thoroughly with and stored in a solution containing: gentamicin, 50 μg/mL; NaCl, 96 mM; KCl, 2 mM; CaCl2, 1.8 mM; MgCl, 1 mM; HEPES, 5 mM (pH 7.6). Defolliculated oocytes were selected at least 2 hours after the collagenase digestion. To express channels, the corresponding cRNA was directly injected into oocytes. To express the GIRK1/4 channel, GIRK1 and GIRK4 cRNAs were co-injected with either M2 or M4 receptor cRNA. All injections were carried out at least 16 hours after the collagenase treatment. The injected oocytes were stored in an 18° C. incubator.
All three inward-rectifier K^+ channels, GIRK1/4, ROMK1, and IRK1, were studied using a two-electrode voltage clamp amplifier (Oocyte Clamp OC-725C, Warner Instruments Corp.). The resistance of electrodes filled with 3 M KCl were 0.2–0.4 M Ω. To elicit current through the channel, the membrane potential of oocytes was stepped to −80 mV (100–125 ms) and then to +80 mV (100–125 ms) from the holding potential of 0 mV. […] Tertiapin concentration was calculated using an extinction coefficient 6.1 mM^−1 cm^−1 at 280 nm wavelength. […]

[1] = target: T2, ROMK1 inward-rectifier K+ channel (Rattus norvegicus, UniProt P35560); conditions: literature values; read-out: Kd for block of ROMK1; cited from earlier work
T2 sequence (P35560 1-391): T1 sequence (P35560 1-391)

[2] = target: T3, ROMK1 I142L channel, P35560
T3 chain: T1 sequence (P35560 1-391) with I142L

[3] = target: T4, ROMK1 inward-rectifier K+ channel (wild-type), P35560
T4 chain: T1 sequence (P35560 1-391)

[4] = target: T5, GIRK1/4 inward-rectifier K+ channel, P63251
T5 chain 1: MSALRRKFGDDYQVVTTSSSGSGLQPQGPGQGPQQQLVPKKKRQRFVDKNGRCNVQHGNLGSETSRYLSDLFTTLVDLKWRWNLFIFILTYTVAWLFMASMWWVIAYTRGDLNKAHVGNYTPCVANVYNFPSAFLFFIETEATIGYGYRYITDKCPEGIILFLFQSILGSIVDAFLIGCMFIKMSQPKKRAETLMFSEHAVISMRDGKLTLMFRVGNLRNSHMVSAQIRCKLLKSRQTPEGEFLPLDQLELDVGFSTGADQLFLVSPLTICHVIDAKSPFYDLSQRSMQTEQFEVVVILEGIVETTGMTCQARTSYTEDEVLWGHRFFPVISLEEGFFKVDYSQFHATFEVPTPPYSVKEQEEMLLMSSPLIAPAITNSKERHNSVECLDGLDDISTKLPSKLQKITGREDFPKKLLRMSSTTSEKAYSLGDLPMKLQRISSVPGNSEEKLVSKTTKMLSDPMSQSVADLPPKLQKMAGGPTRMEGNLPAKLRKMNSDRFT
T5 chain 2: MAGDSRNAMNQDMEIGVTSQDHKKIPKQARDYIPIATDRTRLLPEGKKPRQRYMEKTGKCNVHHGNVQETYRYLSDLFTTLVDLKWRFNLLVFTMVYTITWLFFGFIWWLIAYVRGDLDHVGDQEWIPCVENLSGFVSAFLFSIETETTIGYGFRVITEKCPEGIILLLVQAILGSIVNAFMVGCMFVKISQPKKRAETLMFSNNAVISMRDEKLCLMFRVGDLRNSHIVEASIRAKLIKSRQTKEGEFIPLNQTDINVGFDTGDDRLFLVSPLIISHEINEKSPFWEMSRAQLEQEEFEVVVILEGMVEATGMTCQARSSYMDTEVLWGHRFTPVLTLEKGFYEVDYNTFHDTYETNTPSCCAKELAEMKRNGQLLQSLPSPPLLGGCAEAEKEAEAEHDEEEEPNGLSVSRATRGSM

[5] = target: T5, GIRK1/4 inward-rectifier K+ channel, …; assay: cell-based or functional assay
[6] = target: T6, ROMK1 N171D channel, P35560
T6 chain: T1 sequence (P35560 1-391) with N171D

[7] = target: T5, GIRK1/4 inward-rectifier K+ channel, …
[8] = target: T7, ROMK1 F146A channel, P35560
T7 chain: T1 sequence (P35560 1-391) with F146A

[9] = target: T8, ROMK1 G127S channel, P35560
T8 chain: T1 sequence (P35560 1-391) with G127S

[10] = target: T9, ROMK1 N124A channel, P35560
T9 chain: T1 sequence (P35560 1-391) with N124A

## oxidized form of tertiapin: tertiapin whose methionine residue M13 has become oxidized (ALCNCNRIIIPH[Met(O)]CWKKCGKK; disulfide (positions not given here); ends not checked; UniProt P56587 1-21, looked up)
ROMK1 channel
  sensitivity / affinity of the ROMK1 channel, in words: lower affinity than the non-oxidized form

## Δ-dendrotoxin
[1]
  Kd: 150 nM

B1: synthetic tertiapin (peptide)
peptide: ALCNCNRIIIPHMCWKKCGKK
modifications: not checked
[2]
  fold lower affinity than the wild-type ROMK1 channel: 8 fold
[3]
  Kd: 2 nM
[4]
  Kd: 8 nM
[5]
  inhibition of the GIRK1/4 current at 10 nM: 50%
[6]
  Kd: 1.5 nM
[7]
  Kd: 8.6 nM
[8]
  Kd: 65.2 nM
[9]
  Kd: 2.7 nM
[10]
  Kd: 13.9 nM

— patent US6979572B1, “Compositions and methods for inhibiting inward-rectifier potassium channels” (Trustees of the University of Pennsylvania, priority 1998, dated 2005)
